Test results: the DeepSol protein solubility set

Test: soluble on expression in E. coli; label from the status in PepcDB or PDB records

| Sequence | soluble on expression in E. coli |
| --- | --- |
| ASNFTQFVLVDNGGTGDVTVAPSNFANGVAEWISSNSRSQAYKVTCSVRQSSAQNRKYTIKVEVPKVATQTVGGVELPVAAWRSYLNMELTIPIFATNSDCELIVKAMQGLLKDGNPIPSAIAANSGIYANFTQFVLVDNGGTGDVTVAPSNFANGVAEWISSNSRSQAYKVTCSVRQSSAQNRKYTIKVEVPKVATQTVGGVELPVAAWRSYLNMELTIPIFATNSDCELIVKAMQGLLKDGNPIPSAIAANSGIY | soluble |
| KTAFTAEVLAQSFSGEVQKLSSLVLPAEVIIAQSSIPGEGLGIFSKTWIKAGTEMGPFTGRVIAPEHVDICKNNNLMWEVFNEDGTVRYFIDASQEDHRSWMTYIKCARNEQEQNLEVVQIGTSIFYKAIEMIPPDQELLVWYGNSHNTFLGIPGVPGLEEDQKKNKHED | soluble |
| MGSDKIHHHHHHMLTDMQRDSASSSTVTTEQIVYGALPLTTINEPECRAIAITSINGSATLSGVSGPMGDQTDADLLIQLRGWADAIVVGAETARKENYGPVVLPHGIKNQRQKLGRCGLPKLTLLSKSLYFDFSSELFSPDLPSELSPLVITQQPANNSEQWDQRLQKLIDVGVEVIVAPTSTNPLKIAFDALHARRLKKISIEGGPSVYRQALSLGIVDRLHLTIAPNIICPVESPLFGKISDDSFTTRLVLEMLSSSPNGLIFSRYKVIRDTLGNPTQ | not soluble |
| MNKDQSKIPQATAKRLPLYYRFLKNLHASGKQRVSSAELSDAVKVDSATIRRDFSYFGALGKKGYGYNVDYLLSFFRKTLDQDEMTDVILIGVGNLGTAFLHYNFTKNNNTKISMAFDINESKIGTEVGGVPVYNLDDLEQHVKDESVAILTVPAVAAQSITDRLVALGIKGILNFTPARLNVPEHIRIHHIDLAVELQSLVYFLKHYSVLEEIE | soluble |
| MGSDKIHHHHHHMKTARLIYNPTSGREQIRKSLAYILERLELAGYETSTHATTGEGSATEAARLAGERRHDLVIAAGGDGTIYEVVNGLAGLEKRPTLGLIPAGTTNDFARALNIPRDIEKACDILIEGHTKPVDVGKAGDHYFINIAAGGTLTELTYEVPSKLKTVVGQLAYYIKGLEKLPQISPTDVRIEYDGKLFEGEIMMFLVSNTNSVGGFERLAPNASLRDGMFDFIIVKKTSFPEFLHLAGLALRGEHIKHPKVLYVQANRIKVQAEKSMQLNFDGEYGGLLPAEFVNLYQHFQMLCPKD | not soluble |
| MTSYSLEDFNTPLECAPLARWERKRKEQLDRTSKTPNKTPQGDRFIPNRNVMNIEVSRLNLQQEYYGKENNQNSSSLLDSHMDNVEWNSGKDSPACHHYQSALASSLLQNSYHEEHPQSKILTFKQKAPKPQEGYVNSLKVLYSQNMPQISEQRKRMIRHIPQTPDRILDAPELVDDYYLNLLDWNHENILAVALGSSVYLWNASTGDIQELCNVSQDEMICSVSWVPDGHHLAVGTSMKDVQLWDTQRGRQVRKMHSHSSRVGCLAWNGPILSSGSRDTTIHHHDVRIAQHHVETLRGHEQEVCGLKWNVDGSQLASGGNDNLLMIWDHFHSNQPKYRLDHHHAAVKAIAWCPWQTHLLASGGGTADRTIKFWNTTTGACLQSIDTKSQVCALIWNRHDKEIVSSHGFSQNQLIVWKYPSMVKMAELTGHTSRVLHLSLSPDGQTVVSGAGDETLRFWRVFEASESKLKSSNKTLGHSQKSIMRTCNIR | soluble |
| MGSDKIHHHHHHAFCLDNGLGRTPPMGWMSWTAFYCEIDCVKHPTGCINEQLYKDMADQLVSGGYDKVGYKSVHIDDCWSEMERDSHGILVANKTRFPSGMKALAKYMHDRGLKFGIYEDYGTKTCGGYPGSYKHEKVDAQTFAAWDVDYLKLDGCNIDQAMMPIGYPLFEKELNETGRPIMYSCSW | not soluble |
| MGSDKIHHHHHHMSELLAIPLKRTLEVDFATELSKLIDTTSFQTASFFQSDILKVVDARNNAIAPDISIDGLSALKEYYVILLQLEKKFPNNQIEFTWFQTLSQKSRGTSQYSLQWEKLTIIYNIGCMYSLLALNSNNDAAESLKTSCLYFQNAAGCFKHVLDHQKNLETIPVVDDATLNALTSLMLAQAQECFWFKAVQDKHKDSLIAKLSQQIVDFYCEAINDAQRGKLIRSDWINHLKAKKAYFSAVTYYRIALSFNEKKQFGNVVKALQMGLQFINESTLSSQAKFKTVVESSLKEAQRDNEFIYLQEVPSELPSIKPALMVKPSSSATLLPSIKKDETLFKDLIPIEVMEYCTAYNERQDEYVEQRVTNPLASLNKLLKESLTTFQIPQGLTKVSEAELSHYQASLNNLLINNKNVQVQLDNIEQILNEEAFTDNQLRLKHGTLNWTLPESSTTNTAYYEKLKKLRGYLDEGSAIDKQTNELFQSIDKNLIGSEIRLPESNDPLTNKIKMIIQERNDYIDRTRRKSSEYRILPKIITSYKKNGTVDFEPIFIGHLKYFDEDLRYVNSTKEENIKLIEEVNLSKKNNPGRSGIEPKKMVRIDPRELYIEDLRYSFKLLDEVKENLSAGTAFYENLITSTSNLYNEVQEYDTARRAEKARLDKSLTFEDQ | not soluble |
| MFCSSNIPIRLRDKKENNSIIVLPGGSEKSAAGQWRPHLPT | not soluble |
| MAHHHHHHMSSSAEEKEAKKQEELRLAGSDSEGVRAAVKAQRELKKKRDALRKVQKKIRSGGSDAEVAAAIEQEAALLAEIGHLEALRGASSAPSTAHVAAASFTSTPATAAASPGALVTVATNKSSGAKAARSGEPAKEITAEERAASAKRLHDLVQGAMDANRLKCLHVLPRDAVVHPRIAEVAVLMEQMLLVGGSARALALISAFRELSRTTTVLAVPSLNEVNTTAFEKLIQINFDFVRRKREASAGMRHVKDVLVRRFVALRDEVIHPKPNMVDLIKDL | not soluble |
| MGQWANLKAKVIQLWENTHESISQVGLLGDETGIIKFTIWKNAELPLLEQGESYLLRSVVVGEYNDRFQVQVNKNSSIEKLSEPIEVGLEHHHHHH | not soluble |
| MAHHHHHHMSGNDLLPLWIGTPQRGVTHDDTADPYTSKVGGQAVYFRLGASTAEQQSAGALSKYFQCPQCKSTAQVSLLCQVYAPLEVYDRVLYILTCAACTRRPRAAASLQGSVPAPALTTGTSKKSGLAAAARSHTSFCFALRSQNFSREHFAELQKQLRAEAQRATEDEKEKAENDAPLFGGGDDDWGDDADDWGTEEGPVKEAKPSPAEPLDDAGDKNGALEKTPNELPEFPLASRGMTVPLKGTLYTSGLPLDLYEEPPPKQTKELSIEEQLAAAKSMYGSSAALDTSGFEEDDEAPEERCVREYMEHMERTPSQCVRWCLGGTPLRTSTTPIGVNGSSLPPPCPACGAVRQFEMQLTAPVVFYLTKDIGEAKNTALHFSNVLVYTCSSNCYNTNSNLPYLPEYVVVEDEL | not soluble |
| MKSIPGDIPQYLLIKAQLQARIQSGALKSGDKLPSERELCAIFNTTRITIRESLAQLESSGLIWRADRRGWFVTPERLWLDPTQNTNFHKLCREQGREPKTALLSGVLTTVPVEVMEPLQLQPFDQIYLLTRLRYADGRAVCYCENHCLPARVPELLQYDLNGSLTEVYESHYNLVYTSMHLSFYPTAMPAQAAQALGVMEGRPALLLRRLNYDQHGRVLDLDIEYWRHDSLRIEVDTH | not soluble |
| MSQYGFVRVPREVEKAIPVVNAPRPRAVVPPPNSETARLVREYAAKELTAPVLNHSLRVFQYSVAIIRDQFPAWDLDQEVLYVTCLLHDIATTDKNMRATKMSFEYYGGILSRELVFNATGGNQDYADAVTEAIIRHQDLTGTGYITTLGLILQIATTLDNVGSNTDLIHIDTVSAINEQFPRLHWLSCFATVVDTENSRKPWGHTSSLGDDFSKKVICNTFGYN | not soluble |
| MNKKHVVILGAGYAGLKTLRELQKGAKDVEITLVDRNNYHYEATDLHEVAAGTQPAEKITYNIMDVVDEKMTTFIQGTVKTIDAATQTVALEDGQTINYDYLVVSLGFESESFGIPGVQEHALQMVDVKTALNVYEHIQEQMRQYKATQNEEFLKIVVCGAGFTGIELLGSLVENKPKFAEIAGVSADQIQIYCVEAVTRLLPMFNEKLANYGVQLLKDSAIHLLLGKPIKEIKPGAVVYQDNEAGDLAELSAKTIIWTTGVSGSHVVGDSGFEARRGRVMVQPDLTDANHSNVYIIGDCSAVMDTETNRPYPTTAQIALKMGAHAAKNIQAQLKGEATKPFSFKSQGSVCSVGNTRALGIVGKTDIKGYPASFMKKIIMNKALFETGGTKEMMAKGRFDLYH | not soluble |
| MSLEWQDLAQLPVSIFKDYVTDAQDAEKPFIWTEVFLREINRSNQEIILHIWPMTKTVILGMLDRELPHLELAKKEIISRGYEPVVRNFGGLAVVADEGILNFSLVIPDVFERKLSISDGYLIMVDFIRSIFSDFYQPIEHFEVETSYCPGKFDLSINGKKFAGLAQRRIKNGIAVSIYLSVCGDQKGRSQMISDFYKIGLGDTGSPIAYPNVDPEIMANLSDLLDCPMTVEDVIDRMLISLKQVGFNDRLLMIRPDLVAEFDRFQAKSMANKGMVSRDEEGHHHHHH | soluble |
| MKSALSDLAFFGGPAAFDQPLLVGRPNRIDRARLYERLDRALDSQWLSNGGPLVREFEERVAGLAGVRHAVATCNATAGLQLLAHAAGLTGEVIMPSMTFAATPHALRWIGLTPVFADIDPDTGNLDPDQVAAAVTPRTSAVVGVHLWGRPCAADQLRKVADEHGLRLYFDAAHALGCAVDGRPAGSLGDAEVFSFHATKAVNAFEGGAVVTDDADLAARIRALHNFGFDLPGGSPAGGTNAKMSEAAAAMGLTSLDAFPEVIDRNRRNHAAYREHLADLPGVLVADHDRHGLNNHQYVIVEIDEATTGIHRDLVMEVLKAEGVHTRAYFSPGCHELEPYRGQPHAPLPHTERLAARVLSLPTGTAIGDDDIRRVADLLRLCATRGRELTARHRDTAPAPLAAPQTSTPTIGRSRGLEHHHHHH | soluble |
| MTEVVLHIYDVTNSGSEKTNNTIVQINRFFKDGIGLGGIFHSAIQVYGNDEWSYGYCELGTGVFSCPSGKNPMYTYREKIVLGKTDCTIFMVNQMLRELSREWPGHTYDLLSKNCNHFCDVLCDRLGVPKIPGWVNRFANAGDTALEVAGNTAMRMKQAKTELVSASKVAYRFLSNVTSNVTNGSNGSPQRPGTLNNSDSGNLRLQGSWLKGLLNTAKPSTSTEIGNKDEDANHAVTNQKKQSRDSDVLLFQ | not soluble |
| MEVTVMPAAAPVQKQQGLNQIVINKVQKMIEGKQQGVMATITRLLEEGKIAQDFIAPIGVNLRNEDRHPVITFQAEEQVQMNMPEGNFNLHGNAISQISEKMGIPAKYLRELSAGDAWQKQLCATILNEHSGWTGRTRVLIRAVGTEIRGVLSDSYRRLNSVDILTAFIREAANNGAVVSDAYMNDTKVWCETILPTPVEIPTRKNGTVIIFAGARFSTSDFGNGSVDMRSFLLNGACLNGMVRESVMRQIHLGGRLPDTLALSQRTYELDTKTTVSAVKDLTKGLYSKNTIMQKAIEIQGASEIDVDFDKELKSLVQRGALLKNEGREVEKLLMNNNPDDGITGGATLWKLAQGITAFAREQEPERSRELHEISGQLMNRVKNN | not soluble |
| RQFQILLQQINMTDDTFMTYFEHGEIKKLTIHKASKSWHFHFQFKSLLPFQIYDTLTTRLTQSFAHIAKVTSSIEVQDAEVSESIVQDYWSRCIEELQGISPPIISLLNQQKPKLKGNKLIVKTKTDTEAAALKNKYSSMIQA | not soluble |
